Measured values from publication doi:10.1101/2021.05.06.441297.

Molecular target: fluorescently labeled non-covalent analog of peptide 5 (UniProt P46937)
Test: fluorescence polarisation

Chain of UniProt P46937 (P46937 whole entry, looked up, tested part not stated): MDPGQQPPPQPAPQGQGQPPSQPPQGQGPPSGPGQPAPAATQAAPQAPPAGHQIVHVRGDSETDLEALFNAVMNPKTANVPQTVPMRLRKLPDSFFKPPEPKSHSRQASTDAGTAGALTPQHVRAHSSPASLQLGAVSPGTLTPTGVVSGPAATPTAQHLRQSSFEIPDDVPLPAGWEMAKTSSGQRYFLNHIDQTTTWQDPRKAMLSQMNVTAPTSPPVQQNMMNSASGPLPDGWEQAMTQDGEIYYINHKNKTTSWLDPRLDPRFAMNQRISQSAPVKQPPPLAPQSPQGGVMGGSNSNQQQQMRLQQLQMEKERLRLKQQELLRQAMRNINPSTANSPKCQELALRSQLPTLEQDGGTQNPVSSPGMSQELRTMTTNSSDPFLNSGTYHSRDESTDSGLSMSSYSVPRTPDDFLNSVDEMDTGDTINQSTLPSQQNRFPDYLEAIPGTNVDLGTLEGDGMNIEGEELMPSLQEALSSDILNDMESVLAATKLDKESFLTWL

Kd: 106 nM
Substance: 14-3-3σ full length (1-248) (natural protein)
